Like-named read-outs stand apart in the source and are kept apart here.
T1: peptide KPGQPMY
T1 chain: KPGQPMY

T2: peptide WHWLQLKPGQPMY
T2 chain: WHWLQLKPGQPMY

T3: peptide TPAAAR
T3 chain: TPAAAR


Tests used:
[1] = tested on: peptide TPAAAR
[2] = target: T1, peptide KPGQPMY
[3] = target: T2, peptide WHWLQLKPGQPMY
[4] = target: T3, peptide TPAAAR

Row | Molecule | hydrolysis of the peptide, LC-MS label free quantification [1] | hydrolysis of the peptide (X-Pro bond), LC-MS label free quantification [2] | hydrolysis of the peptide, LC-MS label free quantification [3] | hydrolysis of the peptide, LC-MS label free quantification [4]
1 | COROLASE LAP (fungal exo-peptidase, AB Enzymes) | show no hydrolysis of TPAAAR within 12 hr |  |  | 
2 | TRI031, PepN 2 (aminopeptidase type 2) from Neosartorya fischeri NRRL 181 (protein) NGPGWDWKPPVHPKVLPQMIHLWDLMHGAQKLEDFAYAYPERNRVFGGPAHEDTVNYLYRELKKTGYYDVYKQPQVHQWTRADQALTVDGKSYVATTMTYSPSVNVTAPLAVVNNLGCVESDYPADLKGKIALVSRGECPFATKSVLSAKAGAAAALVYNNIEGSMAGTLGGPTSELGPYAPIAGISLADGQALIQMIQAGTVTANLWIDSKVENRTTYNVIAQTKGGDPNNVVALGGHTDSVEAGPGINDDGSGIISNLVVAKALTRFSVKNAVRFCFWTAEEFGLLGSSYYVNSLNATEKAKIRLYLNFDMIASPNYALMIYDGDGSAFNLTGPAGSAQIERLFEDYYKSIRKPFVPTEFNGRSDYEAFILNGIPAGGIFTGAEAIKTEEQAKLFGGQAGVALDANYHAKGDNMTNLNREAFLINSKATAFAVATYANSLDSIPSRNMSTVVKRSQLEQAKKSTPHTHTGGTGCYKDRVEQ |  | to KPGQPMY (FIG. 6) and further down to QPMY (FIG. 7) | TRI031 and TRI035 can hydrolyze the peptide WHWLQLKPGQPMY (FIG. 5) to KPGQPMY (FIG. 6) and further down to QPMY (FIG. 7) | 
3 | TRI035, PepN 2 (aminopeptidase type 2) from Aspergillus clavatus NRRL 1 (protein) NAPGGPGGHGRKLPVNPKTFPNEIRLKDLLHGSQKLEDFAYAYPERNRVFGGQAHLDTVNYLYRELKKTGYYDVYKQPQVHQWTRADQSLTLGGDSIQASTMTYSPSVNVTAPLSLVSKLGCAEGDYSADVKGKIALVSRGECSFAQKSVLSAKAGAVATIVYNNVDGSLAGTLGGATSELGPYSPIIGITLAAGQDLVARLQAAPTEVSLWIDSKVENRTTYNVIAQTKGGDPNNVVALGGHTDSVENGPGINDDGSGVISNLVVAKALTRYSVKNAVRFCFWTAEEFGLLGSNYYVDNLSPAELAKIRLYLNFDMIASPNYALMIYDGDGSAFNLTGPPGSAQIESLFENYYKSIKQGFVPTAFDGRSDYEGFILKGIPAGGVFTGAESLKTEEQARLFGGQAGVALDANYHAKGDNMTNLNHKAFLINSRATAFAVATYANNLSSIPPRNATVVKRESMKWTKREEPHTHGADTGCFASRVKE |  | to KPGQPMY (FIG. 6) and further down to QPMY (FIG. 7) | TRI031 and TRI035 can hydrolyze the peptide WHWLQLKPGQPMY (FIG. 5) to KPGQPMY (FIG. 6) and further down to QPMY (FIG. 7) | can hydrolyze the peptide TPAAAR over time to less than half the concentration within 2 hr incubation
4 | TRI063, leucine aminopeptidase 2 from Aspergillus oryzae RIB40 (NCBI Reference Sequence XP_001819545.1) (protein) RALVSPDEFPEDIQLEDLLEGSQQLEDFAYAYPERNRVFGGKAHDDTVNYLYEELKKTGYYDVYKQPQVHLWSNADQTLKVGDEEIEAKTMTYSPSVEVTADVAVVKNLGCSEADYPSDVEGKVALIKRGECPFGDKSVLAAKAKAAASIVYNNVAGSMAGTLGAAQSDKGPYSAIVGISLEDGQKLIKLAEAGSVSVDLWVDSKQENRTTYNVVAQTKGGDPNNVVALGGHTDSVEAGPGINDDGSGIISNLVIAKALTQYSVKNAVRFLFWTAEEFGLLGSNYYVSHLNATELNKIRLYLNFDMIASPNYALMIYDGDGSAFNQSGPAGSAQIEKLFEDYYDSIDLPHIPTQFDGRSDYEAFILNGIPSGGLFTGAEGIMSEENASRWGGQAGVAYDANYHAAGDNMTNLNHEAFLINSKATAFAVATYANDLSSIPKRNTTSSLHRRARTMRPFGKRAPKTHAHVSGSGCWHSQVEA |  |  | we also find that their enzyme cleaves the peptide down to QPMY (FIG. 7) | show no hydrolysis of TPAAAR within 12 hr
5 | TRI032, PepN 2 (aminopeptidase type 2) from Myceliophthora thermophila ATCC 42464 (protein) GGHGGSSGLGCDSQRPLVSSEKLQSLIKKEDLLAGSQELQDIATAHGGHRAFGSSGHNATVDFLYYTLKALDYYNVTKQPFKEIFSSGTGSLTVDGEDIEAETLTYTPSGSATDKPVVVVANVGCDAADYPAEVAGNIALIKRGTCTFSQKSVNAKAAGAVAAIIYNNAEGKLSGTLGQPFLDYAPVLGITLEAGEALLAKLAGGPVTATLQIDALVEERVTYNVIAETKEGDHSNVLVLGGHTDSVPAGPGINDDGSGTIGMLTVAKALTKFRVKNAVRFAFWSAEEYGLLGSYAYIKSINSSAAELSKIRAYLNFDMIASPNYIYGIYDGDGNAFNLTGPAGSDVIERNFENFFKRKHTPSVPTEFSGRSDYAAFIENGIPSGGLFTGAEVLKTEREAELFGGRAGVAYDVNYHQAGDTVDNLALDAFLLNTKAIADSVATYALSFDGLPRVDGKKRRWDAHRARMLKRSAGSHGHAHLHSGPCGGGASI |  |  |  | can hydrolyze the peptide TPAAAR over time to less than half the concentration within 2 hr incubation

Source: patent US20180291360
